What was measured:
[1] = target: T1, GPRC5D (G-protein coupled receptor family C group 5 member D), human, on multiple myeloma cell lines (human, UniProt Q9NZD1 1-345); experiment: cell-based or functional assay
[2] = target: T1, GPRC5D (G-protein coupled receptor …); experiment: cell-based or functional assay; remark: listed apart in the source
[3] = target: T2, CD3 (Cluster of Differentiation 3 protein), human, on T cells / Jurkat cells (human, UniProt P07766 23-207; P04234 22-171; P09693 23-182); experiment: FACS, Jurkat cells, antibody at 50 µg/ml
T2 construct: whole, on cells; part of the TCR-CD3 complex; also called human CD3
T2 sequence (P07766 23-207, chain 1 of 3): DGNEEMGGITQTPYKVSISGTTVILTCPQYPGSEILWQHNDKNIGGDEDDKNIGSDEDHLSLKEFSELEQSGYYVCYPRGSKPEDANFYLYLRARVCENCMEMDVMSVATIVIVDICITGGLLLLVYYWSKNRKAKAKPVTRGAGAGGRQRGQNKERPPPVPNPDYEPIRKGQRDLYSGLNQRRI
T2 sequence (P04234 22-171, chain 2 of 3): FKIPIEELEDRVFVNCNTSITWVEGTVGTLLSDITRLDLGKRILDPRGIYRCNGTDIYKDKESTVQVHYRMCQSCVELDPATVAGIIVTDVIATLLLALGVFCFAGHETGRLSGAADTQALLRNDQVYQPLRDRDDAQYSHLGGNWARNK
T2 sequence (P09693 23-182, chain 3 of 3): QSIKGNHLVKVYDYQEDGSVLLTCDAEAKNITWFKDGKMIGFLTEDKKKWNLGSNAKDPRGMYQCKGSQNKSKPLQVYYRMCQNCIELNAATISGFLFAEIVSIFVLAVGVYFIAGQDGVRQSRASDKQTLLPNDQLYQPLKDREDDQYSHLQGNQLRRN
Description: The binding affinities of the generated humanized Fab-scFv-Fab bispecific antibodies were determined by FACS analysis. […] (a) Jurkat cells were washed by Staining Buffer (PBS+1% BSA) in round bottom 96-well plate. [0833] (b) Antibody dilutions and cells were added to each well, incubated at 4 degrees for 1 hour. [0834] (c) Cells were spined down at 300 g for 3 minutes, and the supernatants were discarded. [0835] (d) Cells were washed with Staining Buffer. […] (e) Step (d) was repeated and the cells were incubated for 0.5 hours at 4 degrees with secondary antibody in Staining Buffer. [0837] (f) After incubation, step (d)-(e) were repeated. […] (g) Staining Buffer was added and fluorescence signals were recorded by flow cytometry.

T1 sequence (Q9NZD1 whole entry): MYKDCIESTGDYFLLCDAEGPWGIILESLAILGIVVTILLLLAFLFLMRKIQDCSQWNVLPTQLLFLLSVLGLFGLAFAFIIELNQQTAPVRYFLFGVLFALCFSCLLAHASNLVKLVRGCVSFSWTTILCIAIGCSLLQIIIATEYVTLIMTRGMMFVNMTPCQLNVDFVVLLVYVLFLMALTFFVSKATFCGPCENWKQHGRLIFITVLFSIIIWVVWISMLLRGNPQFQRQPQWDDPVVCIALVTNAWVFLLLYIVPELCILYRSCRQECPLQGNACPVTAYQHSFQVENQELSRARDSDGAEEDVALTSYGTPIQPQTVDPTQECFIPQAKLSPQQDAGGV

B1: Bis-40E9-L2H1 (bispecific antibody)
heavy: EVQLVQSGAEVKKPGASVKVSCKASGYTFTSYVIHWVRQAPGQGLEWMGYFNPYNDGTKYNEEFKGRVTLTSDKSTSTAYMELRSLRSDDTAVYYCARGGVRRYFDVWGQGTTVTVSS
heavy (part 1 of 2): EVQLVQSGAEVKKPGASVKVSCKASGYTFTSYVIHWVRQAPGQGLEWMGYFNPYNDGTKYNEEFKGRVTLTSDKSTSTAYMELRSLRSDDTAVYYCARGGVRRYFDVWGQGTTVTVSS
heavy (part 2 of 2): GGGGSGGGGSEVQLVQSGAEVKKPGSSVKVSCKASGGTFSSYVIHWVRQAPGQCLEWMGYINPYNDVIKYNEKFKGRVTITADKSTSTAYMELSSLRSEDTAVYYCARDSYYSYDGFAYWGQGTLVTVSSGGGGSGGGGSGGGGSGGGGSEIVLTQSPDFQSVTPKEKVTITCSASSSVSYMHWYQQKPDQSPKRLIYDTSKLASGVPSRFSGSGSGTDFTLTINSLEAEDAATYYCQQWSSNPPTFGCGTKVEIKGGGGSGGGGS
light: DIQMTQSPSSLSASVGDRVTITCRASQDIGSNLNWLQQKPGKAIKRLIYATFGLDSGVPSRFSGSRSGTDFTLTISSLQPEDFATYYCQQYASFPYTFGGGTKVEIK
notes: Fab-scFv-Fab (2+1), LALA; not shown: CH1; CL; CH2-CH3 with L234A, L235A; heavy chain constant region with L234A, L235A
- EC50 (nM), luciferase assay, L363 [1]: 0.258 nM
- EC50 (nM), luciferase assay, MM.1S [1]: 0.18 nM
- EC50 (nM), luciferase assay, MOLP-8 [1]: 0.00654 nM
- EC50 (nM), luciferase assay, RPMI8226 [1]: 1.05 nM
- Top (RLU), luciferase assay, L363 [1]: 898 RLU
- Top (RLU), luciferase assay, MM.1S [1]: 2510 RLU
- Top (RLU), luciferase assay, MOLP-8 [1]: 1190 RLU
- Top (RLU), luciferase assay, RPMI8226 [1]: 261 RLU
- IC50 (nM), T-Cell Dependent Cytotoxicity, MM.1S [2]: 0.0437 nM
- IC50 (nM), T-Cell Dependent Cytotoxicity, MOLP-8 [2]: 0.0069 nM
- IC50 (nM), T-Cell Dependent Cytotoxicity, RPMI8226 [2]: 0.356 nM
- Top (%), T-Cell Dependent Cytotoxicity, MM.1S [2]: 56.3%
- Top (%), T-Cell Dependent Cytotoxicity, MOLP-8 [2]: 58.3%
- Top (%), T-Cell Dependent Cytotoxicity, RPMI8226 [2]: 25.9%
- MFI (50 µg/ml) [3]: 113 MFI

B2: Bis-40E9-L2H3-G106A.H (bispecific antibody)
heavy: EVQLVQSGAEVKKPGASVKVSCKASGYTFTSYVIHWVRQAPGQGLEWMGYFNPYNDGTKYNEEFKGRVTLTSDKSTSTAYMELRSLRSDDTAVYYCARGGVRRYFDVWGQGTTVTVSS
heavy (part 1 of 2): EVQLVQSGAEVKKPGASVKVSCKASGYTFTSYVIHWVRQAPGQGLEWMGYFNPYNDGTKYNEEFKGRVTLTSDKSTSTAYMELRSLRSDDTAVYYCARGGVRRYFDVWGQGTTVTVSS
heavy (part 2 of 2): GGGGSGGGGSEVQLVQSGAEVKKPGSSVKVSCKASGYTFSSYVIHWVRQAPGQCLEWMGYINPYNDVIKYNEKFKGRVTLTSDKSTSTAYMELSSLRSEDTAVYYCARDSYYSYDAFAYWGQGTLVTVSSGGGGSGGGGSGGGGSGGGGSEIVLTQSPDFQSVTPKEKVTITCSASSSVSYMHWYQQKPDQSPKRLIYDTSKLASGVPSRFSGSGSGTDFTLTINSLEAEDAATYYCQQWSSNPPTFGCGTKVEIKGGGGSGGGGS
light: DIQMTQSPSSLSASVGDRVTITCRASQDIGSNLNWLQQKPGKAIKRLIYATFGLDSGVPSRFSGSRSGTDFTLTISSLQPEDFATYYCQQYASFPYTFGGGTKVEIK
notes: as for B1
- EC50 (nM), luciferase assay, L363 [1]: 0.187 nM
- EC50 (nM), luciferase assay, MM.1S [1]: 0.268 nM
- EC50 (nM), luciferase assay, MOLP-8 [1]: 0.116 nM
- EC50 (nM), luciferase assay, RPMI8226 [1]: 1.58 nM
- Top (RLU), luciferase assay, L363 [1]: 277 RLU
- Top (RLU), luciferase assay, MM.1S [1]: 2910 RLU
- Top (RLU), luciferase assay, MOLP-8 [1]: 262 RLU
- Top (RLU), luciferase assay, RPMI8226 [1]: 101 RLU
- IC50 (nM), T-Cell Dependent Cytotoxicity, MM.1S [2]: 0.057 nM
- IC50 (nM), T-Cell Dependent Cytotoxicity, MOLP-8 [2]: 0.0068 nM
- IC50 (nM), T-Cell Dependent Cytotoxicity, RPMI8226 [2]: 4.04 nM
- Top (%), T-Cell Dependent Cytotoxicity, MM.1S [2]: 67.4%
- Top (%), T-Cell Dependent Cytotoxicity, MOLP-8 [2]: 54.3%
- Top (%), T-Cell Dependent Cytotoxicity, RPMI8226 [2]: 5.69%
- MFI (50 µg/ml) [3]: 114 MFI

B3: Bis-40E9-L2H4 (bispecific antibody)
heavy: EVQLVQSGAEVKKPGASVKVSCKASGYTFTSYVIHWVRQAPGQGLEWMGYFNPYNDGTKYNEEFKGRVTLTSDKSTSTAYMELRSLRSDDTAVYYCARGGVRRYFDVWGQGTTVTVSS
heavy (part 1 of 2): EVQLVQSGAEVKKPGASVKVSCKASGYTFTSYVIHWVRQAPGQGLEWMGYFNPYNDGTKYNEEFKGRVTLTSDKSTSTAYMELRSLRSDDTAVYYCARGGVRRYFDVWGQGTTVTVSS
heavy (part 2 of 2): GGGGSGGGGSEVQLVQSGAEVKKPGSSVKVSCKASGYTFSSYVIHWVRQAPGQCLEWIGYINPYNDVIKYNEKFKGRATLTSDKSTSTAYMELSSLRSEDTAVYYCARDSYYSYDGFAYWGQGTLVTVSSGGGGSGGGGSGGGGSGGGGSEIVLTQSPDFQSVTPKEKVTITCSASSSVSYMHWYQQKPDQSPKRLIYDTSKLASGVPSRFSGSGSGTDFTLTINSLEAEDAATYYCQQWSSNPPTFGCGTKVEIKGGGGSGGGGS
light: DIQMTQSPSSLSASVGDRVTITCRASQDIGSNLNWLQQKPGKAIKRLIYATFGLDSGVPSRFSGSRSGTDFTLTISSLQPEDFATYYCQQYASFPYTFGGGTKVEIK
notes: as for B1
- EC50 (nM), luciferase assay, L363 [1]: 0.206 nM
- EC50 (nM), luciferase assay, MM.1S [1]: 0.0592 nM
- EC50 (nM), luciferase assay, MOLP-8 [1]: 0.000513 nM
- Top (RLU), luciferase assay, L363 [1]: 1430 RLU
- Top (RLU), luciferase assay, MM.1S [1]: 1700 RLU
- Top (RLU), luciferase assay, MOLP-8 [1]: 213 RLU
- IC50 (nM), T-Cell Dependent Cytotoxicity, MM.1S [2]: 0.0125 nM
- IC50 (nM), T-Cell Dependent Cytotoxicity, MOLP-8 [2]: 0.00239 nM
- IC50 (nM), T-Cell Dependent Cytotoxicity, RPMI8226 [2]: 0.381 nM
- Top (%), T-Cell Dependent Cytotoxicity, MM.1S [2]: 69%
- Top (%), T-Cell Dependent Cytotoxicity, MOLP-8 [2]: 63.9%
- Top (%), T-Cell Dependent Cytotoxicity, RPMI8226 [2]: 20.4%
- MFI (50 µg/ml) [3]: 328 MFI

B4: Bis-40E9-L2H3-D99E.H (bispecific antibody)
heavy: EVQLVQSGAEVKKPGASVKVSCKASGYTFTSYVIHWVRQAPGQGLEWMGYFNPYNDGTKYNEEFKGRVTLTSDKSTSTAYMELRSLRSDDTAVYYCARGGVRRYFDVWGQGTTVTVSS
heavy (part 1 of 2): EVQLVQSGAEVKKPGASVKVSCKASGYTFTSYVIHWVRQAPGQGLEWMGYFNPYNDGTKYNEEFKGRVTLTSDKSTSTAYMELRSLRSDDTAVYYCARGGVRRYFDVWGQGTTVTVSS
heavy (part 2 of 2): GGGGSGGGGSEVQLVQSGAEVKKPGSSVKVSCKASGYTFSSYVIHWVRQAPGQCLEWMGYINPYNDVIKYNEKFKGRVTLTSDKSTSTAYMELSSLRSEDTAVYYCARESYYSYDGFAYWGQGTLVTVSSGGGGSGGGGSGGGGSGGGGSEIVLTQSPDFQSVTPKEKVTITCSASSSVSYMHWYQQKPDQSPKRLIYDTSKLASGVPSRFSGSGSGTDFTLTINSLEAEDAATYYCQQWSSNPPTFGCGTKVEIKGGGGSGGGGS
light: DIQMTQSPSSLSASVGDRVTITCRASQDIGSNLNWLQQKPGKAIKRLIYATFGLDSGVPSRFSGSRSGTDFTLTISSLQPEDFATYYCQQYASFPYTFGGGTKVEIK
notes: as for B1
- EC50 (nM), luciferase assay, L363 [1]: 0.19 nM
- EC50 (nM), luciferase assay, MM.1S [1]: 0.0719 nM
- EC50 (nM), luciferase assay, MOLP-8 [1]: 0.906 nM
- EC50 (nM), luciferase assay, RPMI8226 [1]: 0.878 nM
- Top (RLU), luciferase assay, L363 [1]: 584 RLU
- Top (RLU), luciferase assay, MM.1S [1]: 1720 RLU
- Top (RLU), luciferase assay, MOLP-8 [1]: 118 RLU
- Top (RLU), luciferase assay, RPMI8226 [1]: 113 RLU
- IC50 (nM), T-Cell Dependent Cytotoxicity, MM.1S [2]: 0.0244 nM
- IC50 (nM), T-Cell Dependent Cytotoxicity, MOLP-8 [2]: 0.00776 nM
- IC50 (nM), T-Cell Dependent Cytotoxicity, RPMI8226 [2]: 0.406 nM
- Top (%), T-Cell Dependent Cytotoxicity, MM.1S [2]: 57.2%
- Top (%), T-Cell Dependent Cytotoxicity, MOLP-8 [2]: 68.7%
- Top (%), T-Cell Dependent Cytotoxicity, RPMI8226 [2]: 13.4%
- MFI (50 µg/ml) [3]: 128 MFI

— patent publication US20260193348A1 (ANTENGENE BIOLOGICS, published 2026)
